Measurements: patent US20070207522A1 (UNIVERSITY OF VIRGINIA PATENT FOUNDATION, published 2007)
One block for each binder: values may come before it.

What was measured:
[1] = target: T1, human syndecan-1 (human, UniProt P18827 23-310); assay: lacritin affinity column, biotinylated cell surface proteins, elution with 1 M NaCl, sequencing
T1 construct: also called mammalian syndecan-1; CD138
T1 sequence (looked up): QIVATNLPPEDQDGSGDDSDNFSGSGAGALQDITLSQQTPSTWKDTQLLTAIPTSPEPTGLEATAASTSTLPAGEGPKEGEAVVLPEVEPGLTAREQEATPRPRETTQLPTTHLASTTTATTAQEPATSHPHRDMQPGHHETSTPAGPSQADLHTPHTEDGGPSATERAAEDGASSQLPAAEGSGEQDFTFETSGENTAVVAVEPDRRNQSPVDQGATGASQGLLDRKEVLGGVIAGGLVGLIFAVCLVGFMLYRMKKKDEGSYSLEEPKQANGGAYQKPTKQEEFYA
Experimental: (§1) After washing extensively in physiological salt-containing buffer, bound protein was eluted with 1 M NaCl, and identified with avidin-peroxidase using an ECL blot method. […] 293T cells stably transfected with human syndecan-2 or −4 were kindly provided by Dr. Atsushi Utani (Chiba University). […] Immunolocalization of syndecan-1 in human lacrimal glands was performed using anti-human syndecan-1 antibody (CD138).

[2] = target: human syndecan-2 (human, UniProt P34741 19-201); assay: pull-down from lysates of transfected 293T cells with intein-tagged lacritin
Experimental: as §1

[3] = target: T2, human syndecan-4 (human, UniProt P31431 19-198); assay: as above
T2 sequence (looked up): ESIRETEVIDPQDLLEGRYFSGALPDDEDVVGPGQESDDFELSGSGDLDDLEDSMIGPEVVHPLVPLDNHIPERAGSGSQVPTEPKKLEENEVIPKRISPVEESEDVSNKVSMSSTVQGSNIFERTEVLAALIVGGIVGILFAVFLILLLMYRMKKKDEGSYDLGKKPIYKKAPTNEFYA
Experimental: as §1

[4] = target: T1, human syndecan-1; assay: pull-down from lysates of transfected cells with intein-tagged lacritin, SDS PAGE
Experimental: as §1

[5] = target: T1, human syndecan-1; assay: pull-down from lysates of transfected cells with intein-tagged deletion mutant
Experimental: as §1

human syndecan-2, sequence (P34741 19-201 limits assumed): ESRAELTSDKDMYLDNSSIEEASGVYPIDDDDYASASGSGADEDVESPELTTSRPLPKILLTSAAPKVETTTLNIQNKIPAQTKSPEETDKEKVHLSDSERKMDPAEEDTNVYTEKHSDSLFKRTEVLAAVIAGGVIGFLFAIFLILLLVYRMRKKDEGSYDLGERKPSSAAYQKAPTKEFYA

binding result [1]: binds
B1: mature lacritin (recombinant, from pLAC, cleaved from intein) (ligand)
chain: EDASSDSTGADPAQEAGTSKPNEEISGPAEPASPPETTTTAQETSAAAVQGTAKVTSSRQELNPLKSIVEKSILLTEQALAKAGKGMHGGVPGGKQFIENGSEFAQKLLKKFSLLKPWA
notes: also called soluble lacritin

binding result [2]: no binding | binding result [3]: no binding | binding result [4]: binds
B2: intein-tagged lacritin (pLAC lacritin-intein fusion) (ligand, not shown: small tags and cut ends)
chain: EDASSDSTGADPAQEAGTSKPNEEISGPAEPASPPETTTTAQETSAAAVQGTAKVTSSRQELNPLKSIVEKSILLTEQALAKAGKGMHGGVPGGKQFIENGSEFAQKLLKKFSLLKPWA

binding result [5]: no binding
B3: intein-tagged lacritin deletion mutant C-25 (ligand)
chain: EDASSDSTGADPAQEAGTSKPNEEISGPAEPASPPETTTTAQETSAAAVQGTAKVTSSRQELNPLKSIVEKSILLTEQALAKAGKGMHGGVPGG
notes: Pull-downs used 'intein deletion mutants'; also called lacritin lacking 25 C-terminal amino acids; not shown: intein tag of vector pTYB11
